Results from article PMC9742257.

What was measured:
[1] = target: N-terminal tagged 3XFLAG artemin construct (A. fransciscina); test: native MS; 24mer isolated (manual fixed quad profile of 10,000), then collision induced dissociation (argon); released subunits observed; dimers are held by inter-subunit disulfides
[2] = target: N-terminal tagged 3XFLAG artemin construct (A. fransciscina); test: native MS; intact complex; 200 mM ammonium acetate, 1-2 uM protein, Waters Synapt G2s-i
[3] = target: N-terminal tagged 3XFLAG artemin construct (A. fransciscina); test: cryo-EM structure; single particle cryo-EM, 0.2-1.5 mg/ml protein on Quantifoil grids, 300 keV Titan Krios; C1 ab-initio then octahedral symmetry imposed
[4] = target: fluorescent artemin-His (A. fransciscina); test: native MS; 24mer isolated (manual fixed quad profile of 10,000), then collision induced dissociation (argon); released subunits observed; dimers are held by inter-subunit disulfides
[5] = target: fluorescent artemin-His (A. fransciscina); test: native MS; intact complex; 200 mM ammonium acetate, 1-2 uM protein, Waters Synapt G2s-i
[6] = target: artemin with a C-terminal 6xHis tag (A. fransciscina); test: native gel or EMSA; Native PAGE of the protein after affinity purification and SEC
[7] = target: artemin with a C-terminal 6xHis tag (A. fransciscina); test: native MS; 24mer isolated (manual fixed quad profile of 10,000), then collision induced dissociation (argon); released subunits observed; dimers are held by inter-subunit disulfides
[8] = target: artemin with a C-terminal 6xHis tag (A. fransciscina); test: native MS; intact complex; 200 mM ammonium acetate, 1-2 uM protein, Waters Synapt G2s-i
[9] = target: artemin with a C-terminal 6xHis tag (A. fransciscina); test: cryo-EM structure; single particle cryo-EM, 0.2-1.5 mg/ml protein on Quantifoil grids, 300 keV Titan Krios; C1 ab-initio then octahedral symmetry imposed

## N-terminal tagged 3XFLAG artemin construct (natural protein)
[1]
  stoichiometry N: 2
[2]
  stoichiometry N: 24
[3]
  stoichiometry N: 24

## fluorescent artemin-His (natural protein)
[4]
  stoichiometry N: 2
[5]
  stoichiometry N: 24

## artemin with a C-terminal 6xHis tag (natural protein)
[6]
  stoichiometry N: 24
[7]
  stoichiometry N: 2
[8]
  stoichiometry N: 24
[9]
  stoichiometry N: 24
